# Reference: article PMC5988349
# Experiments:
# [1] = target: dynactin (purified from pig brains) (pig (endogenous in pig brain)) (UniProt F2Z5G5); assay: negative-stain EM with 3D classification
# [2] = target: dynein tail (HC^1-1455) complex (human) (UniProt Q14204); assay: negative-stain EM with 3D classification
# [3] = target: dynactin (purified from pig brains) (pig (endogenous in pig brain)) (UniProt F2Z5G5); assay: cryo-EM structure
# [4] = target: wild-type human cytoplasmic dynein-1, SNAPf-tagged, labelled with TMR or Alexa647 (human) (UniProt Q14204)
Substance,percent of adaptor complexes with one dynein (with m5) [1],percent of adaptor complexes with two dyneins (with m2 and m4) [2],percent of adaptor complexes with two dyneins (with m2 and m5) [2],percent of adaptor complexes with two dyneins (with m2 and m6) [2],stoichiometry N [3],"velocity of BICD2 complexes containing both fluorophores, and hence two dyneins [4]"
dynein tail (HC^1-1455) complex (from UniProt Q14204;O43237;P63172;P63167;Q9NP97),69%,88%,17%,94%,2,–
"wild-type human cytoplasmic dynein-1, SNAPf-tagged, labelled with TMR or Alexa647 (from UniProt Q14204;O43237;P63172;P63167;Q9NP97) (complex)",–,–,–,–,–,1.08 μm/s
